This passage reports limit of detection (LoD) results from article doi:10.1101/2024.10.11.617910.

For the test, the target named is pyroglutamate beta-amyloid peptide (pGlu3-Aβ). In words: SiMoA.

B1: Lecanemab (antibody, V domains shown)
VH: EVQLVESGGGLVQPGGSLRLSCSASGFTFSSFGMHWVRQAPGKGLEWVAYISSGSSTIYYGDTVKGRFTISRDNAKNSLFLQMSSLRAEDTAVYYCAREGGYYYGRSYYTMDYWGQGTTVTVSS
VL: DVVMTQSPLSLPVTPGAPASISCRSSQSIVHSNGNTYLEWYLQKPGQSPKLLIYKVSNRFSGVPDRFSGSGSGTDFTLRISRVEAEDVGIYYCFQGSHVPPTFGPGTKLEIK
On to B1, for which the limit of detection (LoD) was determined as 4 pM.
